From patent US20050282743A1, “Molecular interactions in cells” (Arbor Vita Corporation, priority 2001, published 2005)
Each block holds one molecule with its values, some of them ahead of it. Ends that are not written are not given here. Peptide text beside a SMILES is read from it. * marks the point of attachment. Biotin = O=C1N[C@H]2[C@H](CS[C@H]2CCCCC(=O)*)N1

What was measured:
Assay in all cases: G' assay (10 uM PL peptide), results of TABLE 7 and TABLE 12
Format in all cases: binding
[1] = target: T1, PDZ protein (GST-PDZ fusion) (Homo sapiens, UniProt Q9Y566); settings: PDZ SHANK1, PDZ Domain 1
T1 construct: made in house; host or cells: E. coli (DH5alpha, BL21 or JM109)
T1 sequence (Q9Y566 whole entry, the tested form may be a part): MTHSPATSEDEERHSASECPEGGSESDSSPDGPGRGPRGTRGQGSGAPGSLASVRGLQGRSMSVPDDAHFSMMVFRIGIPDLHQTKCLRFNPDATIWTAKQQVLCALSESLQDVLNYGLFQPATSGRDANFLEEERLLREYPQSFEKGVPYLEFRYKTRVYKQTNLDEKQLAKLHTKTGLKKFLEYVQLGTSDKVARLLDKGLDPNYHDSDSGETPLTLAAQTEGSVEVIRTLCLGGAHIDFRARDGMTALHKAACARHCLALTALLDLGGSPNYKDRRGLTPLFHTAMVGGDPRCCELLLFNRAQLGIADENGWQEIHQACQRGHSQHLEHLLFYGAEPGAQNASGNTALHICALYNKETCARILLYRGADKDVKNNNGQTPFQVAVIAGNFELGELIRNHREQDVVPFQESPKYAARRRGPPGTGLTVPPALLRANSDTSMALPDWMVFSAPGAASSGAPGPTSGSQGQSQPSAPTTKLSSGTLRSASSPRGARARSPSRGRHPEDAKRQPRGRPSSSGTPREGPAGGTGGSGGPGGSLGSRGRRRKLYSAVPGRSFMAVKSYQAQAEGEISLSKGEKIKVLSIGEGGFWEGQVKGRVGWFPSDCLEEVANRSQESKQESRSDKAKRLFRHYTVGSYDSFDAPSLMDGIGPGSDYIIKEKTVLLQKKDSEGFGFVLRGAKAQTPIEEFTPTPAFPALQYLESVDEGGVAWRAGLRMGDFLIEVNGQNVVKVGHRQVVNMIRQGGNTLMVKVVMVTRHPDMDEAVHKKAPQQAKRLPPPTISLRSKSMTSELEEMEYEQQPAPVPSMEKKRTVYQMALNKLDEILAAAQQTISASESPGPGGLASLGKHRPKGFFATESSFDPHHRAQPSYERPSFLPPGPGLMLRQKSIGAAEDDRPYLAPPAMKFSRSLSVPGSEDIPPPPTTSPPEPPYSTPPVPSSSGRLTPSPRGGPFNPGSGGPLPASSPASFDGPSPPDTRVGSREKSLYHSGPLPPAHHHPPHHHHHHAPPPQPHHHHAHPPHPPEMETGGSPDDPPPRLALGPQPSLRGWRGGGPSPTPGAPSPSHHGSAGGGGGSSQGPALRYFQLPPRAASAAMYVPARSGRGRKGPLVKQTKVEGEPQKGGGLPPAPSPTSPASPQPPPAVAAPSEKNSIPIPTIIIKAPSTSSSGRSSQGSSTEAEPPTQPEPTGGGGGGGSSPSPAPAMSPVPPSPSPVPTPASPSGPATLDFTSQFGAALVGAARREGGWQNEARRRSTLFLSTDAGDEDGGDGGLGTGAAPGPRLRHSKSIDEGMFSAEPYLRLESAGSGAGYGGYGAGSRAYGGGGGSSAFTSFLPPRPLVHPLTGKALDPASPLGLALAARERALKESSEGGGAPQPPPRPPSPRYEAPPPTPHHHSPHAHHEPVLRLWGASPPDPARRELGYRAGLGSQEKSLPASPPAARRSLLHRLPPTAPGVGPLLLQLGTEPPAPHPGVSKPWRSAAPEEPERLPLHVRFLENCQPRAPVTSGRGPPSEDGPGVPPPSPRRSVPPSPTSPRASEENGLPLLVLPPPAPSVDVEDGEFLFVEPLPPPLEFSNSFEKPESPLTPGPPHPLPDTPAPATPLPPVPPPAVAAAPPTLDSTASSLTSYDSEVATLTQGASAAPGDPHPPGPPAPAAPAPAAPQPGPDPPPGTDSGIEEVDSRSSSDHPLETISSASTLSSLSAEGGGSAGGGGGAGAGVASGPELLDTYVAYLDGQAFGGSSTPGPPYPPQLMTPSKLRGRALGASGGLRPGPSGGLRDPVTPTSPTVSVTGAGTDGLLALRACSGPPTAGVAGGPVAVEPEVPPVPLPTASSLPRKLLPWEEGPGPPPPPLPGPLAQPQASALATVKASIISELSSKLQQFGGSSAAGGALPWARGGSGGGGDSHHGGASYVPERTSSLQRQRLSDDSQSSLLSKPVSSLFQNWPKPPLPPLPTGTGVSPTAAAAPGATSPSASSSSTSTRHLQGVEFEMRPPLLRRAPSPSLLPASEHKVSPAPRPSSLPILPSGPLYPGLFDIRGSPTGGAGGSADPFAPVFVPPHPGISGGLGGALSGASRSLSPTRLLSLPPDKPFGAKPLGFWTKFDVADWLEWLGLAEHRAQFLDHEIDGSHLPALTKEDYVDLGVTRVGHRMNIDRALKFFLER
Method in brief: (§1)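 Biotin-PL peptide (N-term label), 10 uM vs GST-PDZ; protein 5 ug/ml by default. A450 nm binned: 1 = 0-1, 2 = 1-2, 3 = 2-3, 4 = 3-4, 5 = >4 on >2 repeats, 0 = no binding.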

[2] = target: T2, PDZ protein (GST-PDZ fusion) (Homo sapiens, UniProt Q86UR5); settings: PDZ KIAA0340, PDZ Domain 1
T2 construct: made in house; host or cells: E. coli (DH5alpha, BL21 or JM109)
Method in brief: as §1

[3] = target: T3, PDZ protein (GST-PDZ fusion) (Homo sapiens, UniProt Q8TDM6); settings: PDZ DLG5, PDZ Domain 2
T3 construct: made in house; host or cells: E. coli (DH5alpha, BL21 or JM109)
T3 sequence (Q8TDM6 whole entry, the tested form may be a part): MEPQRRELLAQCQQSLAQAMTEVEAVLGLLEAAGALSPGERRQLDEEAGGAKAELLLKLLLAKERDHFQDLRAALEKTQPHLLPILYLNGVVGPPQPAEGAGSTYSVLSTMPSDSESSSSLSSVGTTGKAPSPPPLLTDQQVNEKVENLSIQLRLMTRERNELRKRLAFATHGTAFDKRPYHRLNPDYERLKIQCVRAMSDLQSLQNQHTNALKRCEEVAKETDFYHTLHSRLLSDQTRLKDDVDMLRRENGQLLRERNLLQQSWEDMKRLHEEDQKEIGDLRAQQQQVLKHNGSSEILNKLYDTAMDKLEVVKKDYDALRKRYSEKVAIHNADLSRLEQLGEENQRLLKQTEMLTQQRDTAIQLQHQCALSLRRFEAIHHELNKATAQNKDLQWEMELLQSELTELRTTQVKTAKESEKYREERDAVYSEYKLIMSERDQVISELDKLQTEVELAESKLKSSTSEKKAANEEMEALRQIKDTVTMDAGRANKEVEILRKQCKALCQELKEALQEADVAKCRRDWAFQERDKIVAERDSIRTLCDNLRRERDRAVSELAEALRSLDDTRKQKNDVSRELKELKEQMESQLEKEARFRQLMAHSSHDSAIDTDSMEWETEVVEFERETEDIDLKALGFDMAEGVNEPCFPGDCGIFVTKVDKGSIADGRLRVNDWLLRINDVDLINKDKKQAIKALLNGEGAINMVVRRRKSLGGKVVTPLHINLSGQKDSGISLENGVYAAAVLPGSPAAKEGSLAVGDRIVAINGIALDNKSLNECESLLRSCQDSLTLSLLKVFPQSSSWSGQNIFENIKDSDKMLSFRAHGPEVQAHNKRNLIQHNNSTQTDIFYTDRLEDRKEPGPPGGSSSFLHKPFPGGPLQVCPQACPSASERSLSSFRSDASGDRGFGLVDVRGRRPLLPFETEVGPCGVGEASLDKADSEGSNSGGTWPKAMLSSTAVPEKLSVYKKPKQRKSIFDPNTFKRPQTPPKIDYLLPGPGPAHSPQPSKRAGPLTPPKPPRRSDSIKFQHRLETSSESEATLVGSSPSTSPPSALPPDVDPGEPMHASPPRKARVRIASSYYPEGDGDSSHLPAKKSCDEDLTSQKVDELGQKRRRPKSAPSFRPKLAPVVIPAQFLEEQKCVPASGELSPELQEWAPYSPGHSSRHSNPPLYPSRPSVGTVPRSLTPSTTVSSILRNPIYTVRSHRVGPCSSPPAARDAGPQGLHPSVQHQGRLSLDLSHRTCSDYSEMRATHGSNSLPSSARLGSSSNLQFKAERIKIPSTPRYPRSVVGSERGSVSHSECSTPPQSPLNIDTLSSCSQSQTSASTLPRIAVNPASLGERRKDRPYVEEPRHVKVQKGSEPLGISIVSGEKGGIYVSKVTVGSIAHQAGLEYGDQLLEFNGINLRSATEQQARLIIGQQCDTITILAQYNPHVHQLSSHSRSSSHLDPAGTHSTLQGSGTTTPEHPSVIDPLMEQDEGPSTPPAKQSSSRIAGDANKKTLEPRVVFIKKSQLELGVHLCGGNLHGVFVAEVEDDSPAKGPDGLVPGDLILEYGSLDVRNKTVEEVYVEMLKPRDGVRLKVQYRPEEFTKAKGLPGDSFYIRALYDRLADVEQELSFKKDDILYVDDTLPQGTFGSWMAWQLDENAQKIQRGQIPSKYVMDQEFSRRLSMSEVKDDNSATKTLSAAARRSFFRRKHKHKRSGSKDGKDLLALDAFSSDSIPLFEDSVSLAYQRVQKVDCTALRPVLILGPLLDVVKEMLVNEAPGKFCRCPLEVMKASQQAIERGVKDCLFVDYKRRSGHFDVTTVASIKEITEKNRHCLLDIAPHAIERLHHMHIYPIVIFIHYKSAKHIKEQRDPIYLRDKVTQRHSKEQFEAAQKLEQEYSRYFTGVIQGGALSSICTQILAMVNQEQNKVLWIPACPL
Method in brief: as §1

[4] = target: T4, PDZ protein (GST-PDZ fusion) (Homo sapiens, UniProt Q9H190)
T4 construct: made in house; host or cells: E. coli (DH5alpha, BL21 or JM109)
T4 sequence (Q9H190 1-292): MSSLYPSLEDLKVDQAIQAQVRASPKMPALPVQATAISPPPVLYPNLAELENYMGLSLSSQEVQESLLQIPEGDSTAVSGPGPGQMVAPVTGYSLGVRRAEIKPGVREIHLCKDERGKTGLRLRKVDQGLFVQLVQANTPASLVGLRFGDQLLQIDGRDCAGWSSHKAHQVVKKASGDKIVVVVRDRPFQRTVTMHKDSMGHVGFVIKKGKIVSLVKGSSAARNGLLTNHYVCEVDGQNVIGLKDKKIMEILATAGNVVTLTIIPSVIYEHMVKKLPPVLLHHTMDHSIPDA
Method in brief: as §1

[5] = target: T5, PDZ protein (GST-PDZ fusion) (Homo sapiens, UniProt Q9NZW5); settings: PDZ P55T, PDZ Domain 1
T5 construct: made in house; host or cells: E. coli (DH5alpha, BL21 or JM109)
T5 sequence (Q9NZW5 1-540): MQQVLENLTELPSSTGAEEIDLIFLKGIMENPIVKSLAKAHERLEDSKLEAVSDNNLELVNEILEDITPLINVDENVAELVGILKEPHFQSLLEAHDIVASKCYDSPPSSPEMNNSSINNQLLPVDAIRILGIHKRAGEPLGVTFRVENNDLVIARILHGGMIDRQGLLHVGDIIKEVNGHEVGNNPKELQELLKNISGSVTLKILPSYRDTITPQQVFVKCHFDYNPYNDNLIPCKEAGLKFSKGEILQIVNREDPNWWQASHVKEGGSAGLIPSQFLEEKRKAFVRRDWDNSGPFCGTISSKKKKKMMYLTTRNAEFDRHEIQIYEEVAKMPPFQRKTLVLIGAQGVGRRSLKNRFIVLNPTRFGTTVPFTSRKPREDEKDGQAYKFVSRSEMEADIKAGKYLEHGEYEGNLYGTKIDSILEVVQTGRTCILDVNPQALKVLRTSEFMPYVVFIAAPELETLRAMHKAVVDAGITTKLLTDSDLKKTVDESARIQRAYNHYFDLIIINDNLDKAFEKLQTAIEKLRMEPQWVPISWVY
Method in brief: as §1

[6] = target: T6, PDZ protein (GST-PDZ fusion) (Homo sapiens, UniProt Q76G19); settings: PDZ LU1, PDZ Domain 1
T6 construct: made in house; host or cells: E. coli (DH5alpha, BL21 or JM109)
T6 sequence (Q76G19 1-769): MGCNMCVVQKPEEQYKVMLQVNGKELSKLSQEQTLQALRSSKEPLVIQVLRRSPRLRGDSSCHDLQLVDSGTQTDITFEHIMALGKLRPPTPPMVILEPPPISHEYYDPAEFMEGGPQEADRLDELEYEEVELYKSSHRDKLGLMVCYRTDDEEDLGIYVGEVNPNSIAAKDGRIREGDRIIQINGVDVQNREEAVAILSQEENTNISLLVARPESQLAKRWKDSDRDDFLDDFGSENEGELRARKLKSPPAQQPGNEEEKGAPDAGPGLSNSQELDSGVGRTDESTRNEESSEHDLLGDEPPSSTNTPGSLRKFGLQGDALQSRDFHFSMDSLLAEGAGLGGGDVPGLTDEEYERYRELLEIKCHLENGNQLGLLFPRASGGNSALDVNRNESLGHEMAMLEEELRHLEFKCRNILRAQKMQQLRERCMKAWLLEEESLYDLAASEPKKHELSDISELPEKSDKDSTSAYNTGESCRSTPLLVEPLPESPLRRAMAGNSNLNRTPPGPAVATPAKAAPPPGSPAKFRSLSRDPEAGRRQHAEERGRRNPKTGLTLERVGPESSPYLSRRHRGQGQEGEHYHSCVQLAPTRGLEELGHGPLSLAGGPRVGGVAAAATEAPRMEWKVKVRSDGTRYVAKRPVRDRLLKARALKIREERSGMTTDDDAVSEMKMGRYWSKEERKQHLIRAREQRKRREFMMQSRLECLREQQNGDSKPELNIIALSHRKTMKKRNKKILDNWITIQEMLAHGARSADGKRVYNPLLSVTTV
Method in brief: as §1

Molecule: CC[C@H](C)[C@H](NC(=O)[C@H](CC(=O)O)NC(=O)[C@H](CCC(=O)O)NC(=O)[C@H](CCCNC(=N)N)NC(=O)[C@@H](NC(=O)CCCC[C@@H]1SC[C@@H]2NC(=O)N[C@@H]21)[C@@H](C)O)C(=O)N[C@@H](Cc1ccc(O)cc1)C(=O)N[C@H](C(=O)N[C@@H](CC(N)=O)C(=O)N[C@@H](Cc1ccc(O)cc1)C(=O)N1CCC[C@H]1C(=O)N[C@H](C(=O)N[C@@H](Cc1ccccc1)C(=O)N[C@@H](CO)C(=O)N[C@@H](CCCNC(=N)N)C(=O)N[C@@H](CCCNC(=N)N)C(=O)N1CCC[C@H]1C(=O)N[C@@H](CCCCN)C(=O)N[C@H](C(=O)N[C@@H](CCCNC(=N)N)C(=O)N[C@H](C(=O)O)C(C)C)[C@@H](C)O)[C@@H](C)O)C(C)C [DNAM-1] (Biotin-TREDIYVNYPTFSRRPKTRV-OH; C-terminus assumed)
Classification [1]: 5 (A450 nm of 4 more than 2× repeated)

Classification [2]: 1 (A450 nm 0-1) | Classification [3]: 1 (A450 nm 0-1) | Classification ([4]; PDZ SITAC-18, PDZ Domain 1): 4 (A450 nm 3-4) | Classification ([4]; PDZ SITAC-18, PDZ Domain 2): 4 (A450 nm 3-4)
Molecule: A2AA_HUMAN (modified) (Biotin-HDFRRAFKKILARGDRKRIV; not fully specified)

Classification [5]: 1 (A450 nm 0-1)
Molecule: KTMPAAMFRLLTGQETPLYI (Biotin-KTMPAAMFRLLTGQETPLYI) [MINT-2]

Classification [6]: 4 (A450 nm 3-4)
Molecule: A2AC_HUMAN (Modified) (Biotin-DFRPSFKHILFRRARRGFRQ; not fully specified)
